In patent publication US7232659:

What was measured:
[1] = molecular target: β2-adrenergic receptor-green fluorescent protein fusion protein (β2AR-GFP) (human; Aequorea victoria) (UniProt P07550); test: flow cytometry, soluble Gαsβ1γ2 competing with bead-borne Gαsβ1γ2 for isoproterenol-bound β2AR-GFP (FIG. 4E)
[2] = molecular target: hexahistidine-tagged G protein heterotrimer Gαsβ1γ2 (human) (UniProt P63092); test: flow cytometry, ARG assembly of 20 nM β2AR-GFP on Gαsβ1γ2 Ni beads, receptor occupied by dobutamine (FIG. 5B)
Chain of hexahistidine-tagged G protein heterotrimer Gαsβ1γ2 (human) (P63092 other isoform, or with tags, fused parts or gaps, chain 1 of 3): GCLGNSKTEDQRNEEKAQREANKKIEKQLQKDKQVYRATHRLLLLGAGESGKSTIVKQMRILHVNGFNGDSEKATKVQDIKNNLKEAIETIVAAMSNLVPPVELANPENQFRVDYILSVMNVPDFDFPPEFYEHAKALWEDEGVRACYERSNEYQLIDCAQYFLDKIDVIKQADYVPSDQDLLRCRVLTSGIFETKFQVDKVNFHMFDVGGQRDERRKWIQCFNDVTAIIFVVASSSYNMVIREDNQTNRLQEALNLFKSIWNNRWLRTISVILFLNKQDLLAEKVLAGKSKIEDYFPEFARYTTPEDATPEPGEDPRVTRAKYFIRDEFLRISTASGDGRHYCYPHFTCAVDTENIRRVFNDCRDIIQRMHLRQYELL
Chain of hexahistidine-tagged G protein heterotrimer Gαsβ1γ2 (human) (P62873 2-340, chain 2 of 3, further chain): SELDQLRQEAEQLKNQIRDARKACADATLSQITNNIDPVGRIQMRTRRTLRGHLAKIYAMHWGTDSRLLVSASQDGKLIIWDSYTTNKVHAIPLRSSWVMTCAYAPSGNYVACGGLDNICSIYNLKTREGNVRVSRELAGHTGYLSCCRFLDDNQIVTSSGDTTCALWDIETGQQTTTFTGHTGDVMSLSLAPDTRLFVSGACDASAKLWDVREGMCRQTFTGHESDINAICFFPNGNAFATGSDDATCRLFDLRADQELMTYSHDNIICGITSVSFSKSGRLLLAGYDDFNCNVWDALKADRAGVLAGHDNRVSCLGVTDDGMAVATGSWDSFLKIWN
Chain of hexahistidine-tagged G protein heterotrimer Gαsβ1γ2 (human) (P59768 other isoform, or with tags, fused parts or gaps, chain 3 of 3, further chain): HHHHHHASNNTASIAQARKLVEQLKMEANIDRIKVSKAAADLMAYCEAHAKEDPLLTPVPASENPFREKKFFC

[3] = molecular target: hexahistidine-tagged G protein heterotrimer Gαsβ1γ2 (human) (UniProt P63092); test: flow cytometry, ARG assembly of 20 nM β2AR-GFP on Gαsβ1γ2 Ni beads, receptor occupied by salbutamol (FIG. 5B)
[4] = molecular target: hexahistidine-tagged G protein heterotrimer Gαsβ1γ2 (human) (UniProt P63092); test: flow cytometry, Gαsβ1γ2 on Ni beads, 40 nM β2AR-GFP with 1 mM isoproterenol; background with 0.1 mM GTPγS about 10,000 β2AR-GFP/bead
[5] = molecular target: FPR-GFP fusion protein (human; Aequorea victoria) (UniProt P21462); test: flow cytometry, LRG assembly of 30 nM FPR-GFP on αβγ DCNi beads, ligand varied (FIG. 13B); exponent printed as 10^6, read as 10^-6

hexahistidine-tagged G protein heterotrimer Gαsβ1γ2 (from UniProt P63092 2-380; P62873 2-340; P59768 2-68)
Kd [1]: 0.09 to 0.11 µM

β2-adrenergic receptor-green fluorescent protein fusion protein (β2AR-GFP) (from UniProt P07550 1-413; P42212 1-238)
ARG/bead level against the full agonist isoproterenol [2]: 10 percent
ARG/bead level against the full agonist isoproterenol [3]: 30 percent
total fluorescence, β2AR-GFP/bead (β2AR-GFP/bead) [4]: 80000

fML (peptide)
EC50 [5]: 5.3 µM
